First the molecules themselves.
B1: Double-stranded RNA-specific adenosine deaminase, residues 296 to 358; numbered along this chain, P55265 (parent)
chain: MAEIKEKICDYLFNVSDSSALNLAKNIGLTKARDINAVLIDMERQGDVYRQGTTPPIWHLTDK

± gives the uncertainty stated by the source.

In the data set the parent is B1. The data set is described as follows: abundance fitness (aPCA) (normalised: wild type 0, dead -1); higher = more abundant; growth selection in yeast, the domain comes from the species named. To be noted: Homo sapiens.
MAEIKEKICDYLFNVSDSSALNLAKNQGLTKARDINAVLIDMERQGDVYRQGTTPPIWHLTDK [I27Q]: the abundance fitness was -0.507 ± 0.072.

As for MAEIKEKICDYLFNVSDSSALNLAKNHGLTKARDINAVLIDMERQGDVYRQGTTPPIWHLTDK [I27H], the abundance fitness is -0.548 ± 0.11.

Take MAEIKEKICDYLFNVSDSSALNLAKNPGLTKARDINAVLIDMERQGDVYRQGTTPPIWHLTDK [I27P]: the abundance fitness is -0.452 ± 0.061.

For MAEIKEKICDYLFNVSDSSALNLAKNEGLTKARDINAVLIDMERQGDVYRQGTTPPIWHLTDK [I27E], the abundance fitness was -0.274 ± 0.078.

On to MAEIKEKICDYLFNVSDSSALNLAKNKGLTKARDINAVLIDMERQGDVYRQGTTPPIWHLTDK [I27K], for which the abundance fitness is -0.324 ± 0.084.

For the variant MAEIKEKICDYLFNVSDSSALNLAKNNGLTKARDINAVLIDMERQGDVYRQGTTPPIWHLTDK [I27N], the abundance fitness is -0.538 ± 0.11.

With MAEIKEKICDYLFNVSDSSALNLAKNGGLTKARDINAVLIDMERQGDVYRQGTTPPIWHLTDK [I27G], the abundance fitness was -0.611 ± 0.07.

For the variant MAEIKEKICDYLFNVSDSSALNLAKNAGLTKARDINAVLIDMERQGDVYRQGTTPPIWHLTDK [I27A], the abundance fitness is -0.471 ± 0.053.

MAEIKEKICDYLFNVSDSSALNLAKNVGLTKARDINAVLIDMERQGDVYRQGTTPPIWHLTDK [I27V]: the abundance fitness was -0.162 ± 0.059.

On to MAEIKEKICDYLFNVSDSSALNLAKNLGLTKARDINAVLIDMERQGDVYRQGTTPPIWHLTDK [I27L], for which the abundance fitness was -0.01 ± 0.046.

As to MAEIKEKICDYLFNVSDSSALNLAKNDGLTKARDINAVLIDMERQGDVYRQGTTPPIWHLTDK [I27D], the abundance fitness is -0.277 ± 0.072.

With MAEIKEKICDYLFNVSDSSALNLAKNSGLTKARDINAVLIDMERQGDVYRQGTTPPIWHLTDK [I27S], the abundance fitness was -0.435 ± 0.048.

Regarding MAEIKEKICDYLFNVSDSSALNLAKNRGLTKARDINAVLIDMERQGDVYRQGTTPPIWHLTDK [I27R], the abundance fitness is -0.584 ± 0.053.

As for MAEIKEKICDYLFNVSDSSALNLAKNYGLTKARDINAVLIDMERQGDVYRQGTTPPIWHLTDK [I27Y], the abundance fitness is -0.944 ± 0.14.

With MAEIKEKICDYLFNVSDSSALNLAKNMGLTKARDINAVLIDMERQGDVYRQGTTPPIWHLTDK [I27M], the abundance fitness is -0.359 ± 0.06.

On to MAEIKEKICDYLFNVSDSSALNLAKNWGLTKARDINAVLIDMERQGDVYRQGTTPPIWHLTDK [I27W], for which the abundance fitness is -0.818 ± 0.13.

As to MAEIKEKICDYLFNVSDSSALNLAKNIDLTKARDINAVLIDMERQGDVYRQGTTPPIWHLTDK [G28D], the abundance fitness was -0.186 ± 0.058.

Regarding MAEIKEKICDYLFNVSDSSALNLAKNIELTKARDINAVLIDMERQGDVYRQGTTPPIWHLTDK [G28E], the abundance fitness is -0.15 ± 0.065.

On to MAEIKEKICDYLFNVSDSSALNLAKNIALTKARDINAVLIDMERQGDVYRQGTTPPIWHLTDK [G28A], for which the abundance fitness is -0.453 ± 0.056.

Turning to MAEIKEKICDYLFNVSDSSALNIAKNIGLTKARDINAVLIDMERQGDVYRQGTTPPIWHLTDK [L23I], the abundance fitness was determined as 0.372 ± 0.062.

With MAEIKEKICDYLFNVSDSSALNPAKNIGLTKARDINAVLIDMERQGDVYRQGTTPPIWHLTDK [L23P], the abundance fitness is -0.299 ± 0.061.

As for MAEIKEKICDYLFNVSDSSALNQAKNIGLTKARDINAVLIDMERQGDVYRQGTTPPIWHLTDK [L23Q], the abundance fitness is -1.2 ± 0.35.

In the case of MAEIKEKICDYLFNVSDSSALNGAKNIGLTKARDINAVLIDMERQGDVYRQGTTPPIWHLTDK [L23G], the abundance fitness was -0.403 ± 0.045.

As for MAEIKEKICDYLFNVSDSSALNHAKNIGLTKARDINAVLIDMERQGDVYRQGTTPPIWHLTDK [L23H], the abundance fitness is -0.453 ± 0.1.

Turning to MAEIKEKICDYLFNVSDSSALNMAKNIGLTKARDINAVLIDMERQGDVYRQGTTPPIWHLTDK [L23M], the abundance fitness is -0.374 ± 0.11.

As to MAEIKEKICDYLFNVSDSSALNWAKNIGLTKARDINAVLIDMERQGDVYRQGTTPPIWHLTDK [L23W], the abundance fitness was -0.682 ± 0.094.

Turning to MAEIKEKICDYLFNVSDSSALNKAKNIGLTKARDINAVLIDMERQGDVYRQGTTPPIWHLTDK [L23K], the abundance fitness is -0.531 ± 0.14.

As to MAEIKEKICDYLFNVSDSSALNYAKNIGLTKARDINAVLIDMERQGDVYRQGTTPPIWHLTDK [L23Y], the abundance fitness is -0.678 ± 0.12.

In the case of MAEIKEKICDYLFNVSDSSALNTAKNIGLTKARDINAVLIDMERQGDVYRQGTTPPIWHLTDK [L23T], the abundance fitness is -0.421 ± 0.079.

For MAEIKEKICDYLFNVSDSSALNSAKNIGLTKARDINAVLIDMERQGDVYRQGTTPPIWHLTDK [L23S], the abundance fitness was -0.424 ± 0.077.

Regarding MAEIKEKICDYLFNVSDSSALNRAKNIGLTKARDINAVLIDMERQGDVYRQGTTPPIWHLTDK [L23R], the abundance fitness was -0.592 ± 0.06.

Take MAEIKEKICDYLFNVSDSSALNFAKNIGLTKARDINAVLIDMERQGDVYRQGTTPPIWHLTDK [L23F]: the abundance fitness was -1.03 ± 0.16.

For MAEIKEKICDYLFNVSDSSALNVAKNIGLTKARDINAVLIDMERQGDVYRQGTTPPIWHLTDK [L23V], the abundance fitness is -0.316 ± 0.053.

As to MAEIKEKICDYLFNVSDSSALNLACNIGLTKARDINAVLIDMERQGDVYRQGTTPPIWHLTDK [K25C], the abundance fitness is -0.36 ± 0.1.

In the case of MAEIKEKICDYLFNVSDSSALNLADNIGLTKARDINAVLIDMERQGDVYRQGTTPPIWHLTDK [K25D], the abundance fitness is -0.141 ± 0.1.

As to MAEIKEKICDYLFNVSDSSALNLAENIGLTKARDINAVLIDMERQGDVYRQGTTPPIWHLTDK [K25E], the abundance fitness is -0.124 ± 0.083.

As to MAEIKEKICDYLFNVSDSSALNLAMNIGLTKARDINAVLIDMERQGDVYRQGTTPPIWHLTDK [K25M], the abundance fitness is -0.282 ± 0.072.

With MAEIKEKICDYLFNVSDSSALNLALNIGLTKARDINAVLIDMERQGDVYRQGTTPPIWHLTDK [K25L], the abundance fitness was -0.404 ± 0.056.

On to MAEIKEKICDYLFNVSDSSALNLAHNIGLTKARDINAVLIDMERQGDVYRQGTTPPIWHLTDK [K25H], for which the abundance fitness is -0.083 ± 0.082.

For the variant MAEIKEKICDYLFNVSDSSALNLAWNIGLTKARDINAVLIDMERQGDVYRQGTTPPIWHLTDK [K25W], the abundance fitness is -0.82 ± 0.092.

With MAEIKEKICDYLFNVSDSSALNLAQNIGLTKARDINAVLIDMERQGDVYRQGTTPPIWHLTDK [K25Q], the abundance fitness was -0.024 ± 0.058.

MAEIKEKICDYLFNVSDSSALNLAPNIGLTKARDINAVLIDMERQGDVYRQGTTPPIWHLTDK [K25P]: the abundance fitness was -0.928 ± 0.12.

Source of the values: the Human Domainome abundance scans (Beltran et al. 2025).
